Target: PSR2-PDF1-Cα heterotrimer (not stated | A. thaliana | human) (UniProt E0W4V5)
Experiment: cryo-EM structure

## PSR2-PDF1-Cα heterotrimer (from UniProt E0W4V5;P67775) (complex)
  stoichiometry N: 2

From doi:10.1101/2025.06.14.659724
